Results taken from patent US20250304927A1, “PRO-PEPTIDE VARIANTS FOR MODULATING ACTIVITY OF TRANSGLUTAMINASES” (CURIE CO. INC., priority 2022, published 2025).

T1: thermostable variant of Streptomyces mobaraensis transglutaminase (Streptomyces mobaraensis, UniProt P81453 79-407)
T1 sequence: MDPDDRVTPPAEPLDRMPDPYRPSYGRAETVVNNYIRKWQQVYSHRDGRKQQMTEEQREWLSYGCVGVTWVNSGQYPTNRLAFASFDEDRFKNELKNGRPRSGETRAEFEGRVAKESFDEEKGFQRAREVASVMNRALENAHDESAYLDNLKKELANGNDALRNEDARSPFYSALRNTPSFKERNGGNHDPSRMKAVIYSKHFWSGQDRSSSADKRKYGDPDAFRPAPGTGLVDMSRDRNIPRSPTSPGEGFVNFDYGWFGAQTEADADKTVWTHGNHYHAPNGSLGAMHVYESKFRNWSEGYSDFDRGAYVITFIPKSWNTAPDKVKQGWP


target: T1, thermostable variant of Streptomyces …; experiment: cell-based or functional assay

Row | Binder | Improvement in pH responsiveness of inhibitory peptide relative to WT [fold]
1 | MDNGAGEETKS [pro-peptide truncation variant ΔY12-P46] | > 1.2
2 | MDNGAGEETKSYAETYR [pro-peptide truncation variant ΔL18-P46] | > 5
3 | MDNGAGEETKSYAETYRLTADDVAN [pro-peptide truncation variant ΔI26-P46] | > 1.2
4 | MDNGAGEGTKSYAETYRLTADDVANINALNESAPAASSAGPSFRAP [pro-peptide variant E8G] | > 1.2
5 | MDNGAGEETKSYAETYRLTADDVANINALNESAPAASSAGPSFRAV [pro-peptide variant P46V] | > 1.2
6 | MDNGAGEETKSYAETYRLTADDVANINALNESAPAASSAGPSFRAD [pro-peptide variant P46D] | > 1.2
7 | MDNGAGEETKSYAETYRLTADDVANINALNESAPAASSAGPSFRAN [pro-peptide variant P46N] | > 5
8 | MDNGAGEETKSYAETYRLTADDVANINALNESAPAASHAGPSFRAP [pro-peptide variant S38H] | > 1.2
9 | MDNGAGEETKSYAETYRLTADDVANINALNESAPAASSAGPSFRAA [pro-peptide variant P46A] | > 1.2
10 | MDNGAGEETKSYAETYRLTADDVANINALNESAPAASSAGPSFRAW [pro-peptide variant P46W] | > 1.2
11 | MDNGAGEETKSYAETYRLTADDVANINALNESAPAASSAGPSFRAI [pro-peptide variant P46I] | > 1.2
12 | MDNGAGEETKSYAETYRLTADDVANINALNESAPAASSAGPSFRAR [pro-peptide variant P46R] | > 1.2
13 | MDNGAGEETKSYAETYRLTADDVANINALNESAPAASTAGPSFRAP [pro-peptide variant S38T] | > 1.2
14 | MDNGAGEETKSYAETYRLTADDVANINALNESAPAASSAGPSFRAQ [pro-peptide variant P46Q] | > 1.2
15 | MDNGAGEETKSYAETYRLTADDVANINALNESAPAASSAGPSFRAL [pro-peptide variant P46L] | > 1.2
16 | MDNGAGEETKSYAETYRLTADDVANINALNESAPAASSAGPSFRAS [pro-peptide variant P46S] | > 1.2
17 | MDNGAGEETKSYAETYRLTADDVANINALNESAPAASSAGPSFRAE [pro-peptide variant P46E] | > 1.2
18 | MDNGAGEETKSYAETYRLTADDVANINALNESAPAASSAGPSFRAC [pro-peptide variant P46C] | > 1.2
19 | MDNGAGGETKSYAETYRLTADDVANINALNESAPAASSAGPSFRAP [pro-peptide variant E7G] | > 5
20 | MDNGAGEETKSYAETYRLTADDVANINALNESAPAASVAGPSFRAP [pro-peptide variant S38V] | > 1.2
21 | MDNGAGEETKSYAETYRLTADDVANINALNESAPAASSAGPSFRAK [pro-peptide variant P46K] | > 1.2

target: T1, thermostable variant of Streptomyces …; experiment: cell-based or functional assay; remark: another data set of the same source

Row | Binder | Improvement in binding affinity of inhibitory peptide relative to WT [fold]
22 | MDNGAGEETKSYAETYRLTADDVANINALNESAPAASSAGPSFRAV [pro-peptide variant P46V] | > 1.2
23 | MDNGAGEETKSYAETYRLTADDVANINALNESAPAASSAGPSFRAD [pro-peptide variant P46D] | > 1.2
24 | MDNGAGEETKSYAETYRLTADDVANINALNESAPAASSAGPSFRAN [pro-peptide variant P46N] | > 1.2
25 | MDNGAGEETKSYAETYRLTADDVANINALNESAPAASHAGPSFRAP [pro-peptide variant S38H] | > 1.2
26 | MDNGAGEETKSYAETYRLTADDVANINALNESAPAASSAGPSFRAA [pro-peptide variant P46A] | > 1.2
27 | MDNGAGEETKSYAETYRLTADDVANINALNESAPAASSAGPSFRAW [pro-peptide variant P46W] | > 1.2
28 | MDNGAGEETKSYAETYRLTADDVANINALNESAPAASSAGPSFRAI [pro-peptide variant P46I] | > 1.2
29 | MDNGAGEETKSYAETYRLTADDVANINALNESAPAASSAGPSFRAR [pro-peptide variant P46R] | > 1.2
30 | MDNGAGEETKSYAETYRLTADDVANINALNESAPAASTAGPSFRAP [pro-peptide variant S38T] | > 1.2
31 | MDNGAGEETKSYAETYRLTADDVANINALNESAPAASSAGPSFRAQ [pro-peptide variant P46Q] | > 1.2
32 | MDNGAGEETKSYAETYRLTADDVANINALNESAPAASSAGPSFRAL [pro-peptide variant P46L] | > 1.2
33 | MDNGAGEETKSYAETYRLTADDVANINALNESAPAASSAGPSFRAS [pro-peptide variant P46S] | > 1.2
34 | MDNGAGEETKSYAETYRLTADDVANINALNESAPAASSAGPSFRAE [pro-peptide variant P46E] | > 1.2
35 | MDNGAGEETKSYAETYRLTADDVANINALNESAPAASSAGPSFRAC [pro-peptide variant P46C] | > 1.2
36 | MDNGAGEETKSYAETYRLTADDVANINALNESAPAASVAGPSFRAP [pro-peptide variant S38V] | > 1.2
37 | MDNGAGEETKSYAETYRLTADDVANINALNESAPAASSAGPSFRAK [pro-peptide variant P46K] | > 1.2

target: T1, thermostable variant of Streptomyces …; experiment: cell-based or functional assay; remark: another data set of the same source

Row | Binder | Reduction in binding affinity of inhibitory peptide relative to WT [fold]
38 | MDNGAGEETKS [pro-peptide truncation variant ΔY12-P46] | > 1.2
39 | MDNGAGEETKSYAETYRLTAD [pro-peptide truncation variant ΔD22-P46] | > 1.2
40 | MDNGAGEETKSYAETYR [pro-peptide truncation variant ΔL18-P46] | > 1.2
41 | MDNGAGEETKSYAETYRLTADDVAN [pro-peptide truncation variant ΔI26-P46] | > 1.2
42 | MDNGAGEGTKSYAETYRLTADDVANINALNESAPAASSAGPSFRAP [pro-peptide variant E8G] | > 1.2
43 | MDNGAGEETKSYAATYRLTADDVANINALNESAPAASSAGPSFRAP [pro-peptide variant E14A] | > 1.2
44 | MDNGAGEETKSYAETYRLTADDVANINALNESAPAASDAGPSFRAP [pro-peptide variant S38D] | > 1.2
45 | MDNGAGEETKSYAETYRLTADQVANINALNESAPAASSAGPSFRAP [pro-peptide variant D22Q] | > 1.2
46 | MDNGAGEETKGYAETYRLTADDVANINALNESAPAASSAGPSFRAP [pro-peptide variant S11G] | > 5
47 | MDNGAGEETKSYAETYRLTADPVANINALNESAPAASSAGPSFRAP [pro-peptide variant D22P] | > 1.2
48 | MDNGAGEETKSYAETYRETADDVANINALNESAPAASSAGPSFRAP [pro-peptide variant L18E] | > 1.2
49 | MDNGAGEETKSYAETYRLTADDVPNINALNESAPAASSAGPSFRAP [pro-peptide variant A24P] | > 5
50 | MDNGAGEETKYYAETYRLTADDVANINALNESAPAASSAGPSFRAP [pro-peptide variant S11Y] | > 1.2
51 | MDNGAGEETKSYACTYRLTADDVANINALNESAPAASSAGPSFRAP [pro-peptide variant E14C] | > 1.2
52 | MDNGAGEETKSSAETYRLTADDVANINALNESAPAASSAGPSFRAP [pro-peptide variant Y12S] | > 5
53 | MDNGAGEETKSYAETYRLTADRVANINALNESAPAASSAGPSFRAP [pro-peptide variant D22R] | > 1.2
54 | MDNGAGEETKSYADTYRLTADDVANINALNESAPAASSAGPSFRAP [pro-peptide variant E14D] | > 1.2
55 | MDNGAGEETCSYAETYRLTADDVANINALNESAPAASSAGPSFRAP [pro-peptide variant K10C] | > 1.2
56 | MDNGAGEETKSYAETYRLTADDVANINALNESAPAASPAGPSFRAP [pro-peptide variant S38P] | > 1.2
57 | MDNGAGEETKSYAETYRLTADDVENINALNESAPAASSAGPSFRAP [pro-peptide variant A24E] | > 1.2
58 | MDNGAGEETKSYAETYRLTADDVANENALNESAPAASSAGPSFRAP [pro-peptide variant I26E] | > 1.2
59 | MDNGAGEETKHYAETYRLTADDVANINALNESAPAASSAGPSFRAP [pro-peptide variant S11H] | > 1.2
60 | MDNGAGEETKSYAETYRLTADYVANINALNESAPAASSAGPSFRAP [pro-peptide variant D22Y] | > 1.2
61 | MDNGAGEETKSYAETYRSTADDVANINALNESAPAASSAGPSFRAP [pro-peptide variant L18S] | > 1.2
62 | MDNGAGGETKSYAETYRLTADDVANINALNESAPAASSAGPSFRAP [pro-peptide variant E7G] | > 1.2
63 | MDNGAGEETKSYAETYRLTADDVANANALNESAPAASSAGPSFRAP [pro-peptide variant I26A] | > 1.2
64 | MDNGAGEETKSPAETYRLTADDVANINALNESAPAASSAGPSFRAP [pro-peptide variant Y12P] | > 1.2
65 | MDNGAGEETKSYAHTYRLTADDVANINALNESAPAASSAGPSFRAP [pro-peptide variant E14H] | > 1.2
66 | MDNGAGEETKSYAETYRLTADDVANINALNESAPAASYAGPSFRAP [pro-peptide variant S38Y] | > 1.2
